Measurements from article PMC4585930.

Target: GFP-CRN7 WT (UniProt Q55E54)
Assay: pull-down, western blot band intensity
Conditions: read off a plot

Chain of UniProt Q55E54 (Q55E54 whole entry): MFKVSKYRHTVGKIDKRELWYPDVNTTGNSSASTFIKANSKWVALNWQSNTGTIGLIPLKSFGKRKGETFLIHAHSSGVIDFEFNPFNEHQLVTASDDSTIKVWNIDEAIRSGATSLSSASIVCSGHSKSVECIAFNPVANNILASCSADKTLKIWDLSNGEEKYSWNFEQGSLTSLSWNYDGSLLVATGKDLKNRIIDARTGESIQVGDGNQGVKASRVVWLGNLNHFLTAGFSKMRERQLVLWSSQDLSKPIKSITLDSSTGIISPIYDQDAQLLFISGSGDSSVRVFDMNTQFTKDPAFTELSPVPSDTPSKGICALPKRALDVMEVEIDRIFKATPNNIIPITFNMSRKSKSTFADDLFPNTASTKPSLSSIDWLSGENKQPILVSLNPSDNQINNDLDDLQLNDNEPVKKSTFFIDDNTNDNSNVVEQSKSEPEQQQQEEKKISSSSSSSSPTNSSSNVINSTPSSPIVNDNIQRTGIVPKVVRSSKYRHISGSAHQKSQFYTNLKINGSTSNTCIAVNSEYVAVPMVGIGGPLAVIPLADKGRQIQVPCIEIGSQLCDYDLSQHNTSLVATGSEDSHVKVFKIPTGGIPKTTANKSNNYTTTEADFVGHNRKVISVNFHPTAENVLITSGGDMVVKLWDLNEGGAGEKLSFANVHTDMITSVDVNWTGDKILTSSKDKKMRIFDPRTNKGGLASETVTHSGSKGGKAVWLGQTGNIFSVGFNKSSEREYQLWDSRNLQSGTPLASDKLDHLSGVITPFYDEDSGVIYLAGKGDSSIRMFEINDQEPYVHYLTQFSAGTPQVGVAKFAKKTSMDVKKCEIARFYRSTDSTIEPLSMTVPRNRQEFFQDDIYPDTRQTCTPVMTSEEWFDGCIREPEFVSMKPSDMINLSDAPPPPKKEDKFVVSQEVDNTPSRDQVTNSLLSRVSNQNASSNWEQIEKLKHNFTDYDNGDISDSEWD

Substance: GST-RacC (from UniProt P34149) D to A (Mut2)
- response (arbitrary units) (RacC Mut2 loaded with GDP, parent: est. 61): 57
- response (arbitrary units) (RacC Mut2 loaded with GTPγS, parent: est. 39): 43

Substance: GST-RacC (from UniProt P34149) DD to QQ (Mut5)
- response (arbitrary units) (RacC Mut5 loaded with GDP, parent: est. 61): 51
- response (arbitrary units) (RacC Mut5 loaded with GTPγS, parent: est. 39): 49

Substance: GST-RacC (from UniProt P34149) ED to KK (Mut1)
- response (arbitrary units) (RacC Mut1 loaded with GDP, parent: est. 61): 52
- response (arbitrary units) (RacC Mut1 loaded with GTPγS, parent: est. 39): 48

Substance: GST-RacC (from UniProt P34149) EE to KK (Mut4)
- response (arbitrary units) (RacC Mut4 loaded with GDP, parent: est. 61): 54
- response (arbitrary units) (RacC Mut4 loaded with GTPγS, parent: est. 39): 46

Substance: GST-RacC (from UniProt P34149) Y40K
- response (arbitrary units) (RacC Mut3 loaded with GDP, parent: est. 61): 64
- response (arbitrary units) (RacC Mut3 loaded with GTPγS, parent: est. 39): 36
